Where a chain is given by its changes, count along the chain named. Names and notes keep the numbering of the source. “Also recorded” adds a separate entry of the source. Where two headings read alike, the source gives them in different places.
B1: stCPG2(QTQ): surface tethered CPG2, Q222, T264, Q272 (protein)
chain: ALAQKRDNVLFQAATDEQPAVIKTLEKLVNIETGTGDAEGIAAAGNFLEAELKNLGFTVTRSKSAGLVVGDNIVGKIKGRGGKNLLLMSHMDTVYLKGILAKAPFRVEGDKAYGPGIADDKGGNAVILHTLKLLKEYGVRDYGTITVLFNTDEEKGSFGSRDLIQEEAKLADYVLSFEPTSAGDEKLSLGTSGIAYVQVQITGKASHAGAAPELGVNALVEASDLVLRTMNIDDKAKNLRFTWTIAKAGQVSNIIPASATLNADVRYARNEDFDAAMKTLEERAQQKKLPEADVKVIVTRGRPAFNAGEGGKKLVDKAVAYYKEAGGTLGVEERTGGGTDAAYAALSGKPVIESLGLPGFGYHSDKAEYVDISAIPRRLYMAARLIMDLGAGKDLDDKGCPAEQRASPLTSIISAVVGILLVVVLGVVFGILIKRRQQKIRKYT
B2: stCPG2(QAQ): surface tethered CPG2, Q222, A264, Q272 (protein)
chain: B1 chain with T242A
B3: stCPG2(QSQ): surface tethered CPG2, Q222, S264, Q272 (protein)
chain: B1 chain with T242S
B4: CPG2* (cytosolic carboxypeptidase G2 from Pseudomonas strain RS16) (enzyme)
chain: ALAQKRDNVLFQAATDEQPAVIKTLEKLVNIETGTGDAEGIAAAGNFLEAELKNLGFTVTRSKSAGLVVGDNIVGKIKGRGGKNLLLMSHMDTVYLKGILAKAPFRVEGDKAYGPGIADDKGGNAVILHTLKLLKEYGVRDYGTITVLFNTDEEKGSFGSRDLIQEEAKLADYVLSFEPTSAGDEKLSLGTSGIAYVQVNITGKASHAGAAPELGVNALVEASDLVLRTMNIDDKAKNLRFNWTIAKAGNVSNIIPASATLNADVRYARNEDFDAAMKTLEERAQQKKLPEADVKVIVTRGRPAFNAGEGGKKLVDKAVAYYKEAGGTLGVEERTGGGTDAAYAALSGKPVIESLGLPGFGYHSDKAEYVDISAIPRRLYMAARLIMDLGAGK
notes: Homodimer; also called COS/CPG2*
B5: CPG2*(N222L) (enzyme)
chain: B4 chain with N200L
notes: Cytosolic form expressed in COS cells
B6: CPG2*(QAQ): cytosolic CPG2*(Q)3 with the glutamine at position 264 substituted with alanine (protein)
chain: B4 chain with N200Q, N242A, N250Q
B7: COS/stCPG2 (Q, NWV, Q): CPG2 with T266 altered to V266 in the context of Q222 and Q272 (protein, UniProt P06621 23-415, looked up, variant N222Q T266V N272Q)
Carboxypeptidase G2: B4 chain with N200Q, T244V, N250Q
modifications: surface tethered
notes: CPG2 with T266 altered to V266 in the context of Q222 and Q272
B8: CPG2*(N272): cytosolic CPG2* with N to L substitution at position 272 (protein)
chain: B4 chain with N250L
B9: CPG2*(N264L): cytosolic CPG2* with N to L substitution at position 264 (protein)
chain: B4 chain with N242L
B10: CPG2*(QTQ): cytosolic CPG2*(Q)3 with the glutamine at position 264 substituted with threonine (protein)
chain: B4 chain with N200Q, N242T, N250Q
B11: CPG2*(Q)3: cytosolic CPG2* bearing three asparagine to glutamine mutations (N222, N264, N272) (protein)
chain: B4 chain with N200Q, N242Q, N250Q
B12: CPG2*(QSQ) (enzyme)
chain: B4 chain with N200Q, N242S, N250Q
notes: also called COS/CPG2* (QSQ)

What was measured:
[1] = Enzyme kinetic studies of CPG2-derived enzymes in detergent soluble cell extracts, MTX as substrate; assay type: biochemical; conditions: for Catalytic activity (%): specific activity of COS/CPG2* (50 ng CPG2*) assigned as 100%; for catalytic activity compared to CPG2*(Q)3: increase relative to CPG2*(Q)3; for increase in Km (decrease in apparent affinity for MTX) compared to CPG2*(Q)3: relative to CPG2*(Q)3
From the text: Detergent soluble cell extracts, and enzyme kinetic analyses have been described previously (Marais et al (1996) Cancer Res. 56, 4735-4742; Marais et al (1997) Nature Biotech. 15, 1373-1377).

[2] = CPG2 dimer stability by non-reducing SDS-polyacrylamide gel electrophoresis of COS cell extracts; conditions: sample not heated
From the text: To test this, CPG2* was transiently expressed in COS cells and the stability of the dimers determined by non-reducing SDS-polyacrylamide gels.

[3] = CPG2 enzyme activity in detergent soluble extracts of stably expressing clones, MTX as substrate; assay type: biochemical; conditions: for CPG2 activity (U/mg): U/mg detergent soluble protein, clone as in label
From the text: All mammalian cell lines were maintained in Dulbecco's Modified Eagle's Medium supplemented with 10% foetal calf serum (DMEM/FCS). For this study, the human colorectal carcinoma cell line WiDr (Noguchi et al (1979) In Vitro. 15, 401-408, and the human ovarian carcinoma cell lines SK-OV-3 (Hill et al. (1987) 39, 219-225) and A2780 (Louie et al. (1985) Cancer Res. 45, 2110-2115) were separately transfected with the plasmid pMCEFstcpg2(Q)3 (Marais et al (1997) Nature Biotech. 15, 1373-1377) and G418-resistant colonies were selected by limiting dilution. Detergent soluble extracts were incubated with methotrexate, a good carboxypeptidase G2 substrate. Rate of change of absorbance at 320 nm was measured to identify those colonies able to degrade MTX and therefore likely to express stCPG2(Q)3. Expression of stCPG2(Q)3 was confirmed by immunoblotting these detergent soluble extracts using a rabbit polyclonal serum specific for CPG2 (Marais et al (1996) Cancer Res. 56, 4735-4742; Marais et al (1997) Nature Biotech. 15, 1373-1377). Cell lines constitutively expressing β-galactosidase or CPG2* have been described (Marais et al (1996) Cancer Res. 56, 4735-4742; Marais et al (1997) Nature Biotech. 15, 1373-1377).
In order to conduct these studies, we engineered WiDr (human colorectal adenocarcinoma), SK-OV-3 and A2780 (both human ovarian tumour lines) cells for stable expression of stCPG2(Q)3. The presence of stCPG2(Q)3 was verified by immunoprotein blotting (data not shown) and the levels of enzyme activity in these clones were determined using MTX as substrate (Table 2). For each line two or three clones were examined. The SK-OV-3 clones expressed the lowest levels of CPG2 activity (0.016 and 0.023 U/mg protein) followed by the A2780 clones (0.06 and 0.067 U/mg), with WiDr clones expressing the highest level of CPG2 activity (0.177 and 0.226 U/mg) (Table 2).

[4] = previous study, cited from earlier work
[5] = molecular target: the molecule itself; assay: non-reducing SDS-PAGE of COS cell extracts (homodimer)
From the text: We first determined why the asparagine to glutamine mutations that blocked glycosylation reduced CPG2s enzyme activity. […] We next tested each position independently.

[6] = substrate MTX, detergent soluble cell extract, read-out: Km (μM MTX)

| Molecule | Catalytic activity (%) [1] | Km [1, 6] | dimer stability [2] | also measured |
| --- | --- | --- | --- | --- |
| B1 | 29% | 45 µM | did nor form stable dimers |  |
| B2 | 38% | 69 µM | did nor form stable dimers |  |
| B3 | 40% | 51 µM | weak dimers |  |
| B4 | 100% | 7.2 µM |  | enzyme activity of CPG2* clone relative to stCPG2(Q)3 clones ([3]; A2780): ~15 times; CPG2 activity (U/mg) ([3]; listed as S2.34 CPG2*): 0.023 U/mg; CPG2 activity (U/mg) ([3]; listed as S2.4 CPG2*): 0.014 U/mg; CPG2 enzyme activity ([4]; A2780 clone expressing CPG2*): 0.964 U/mg; CPG2 enzyme activity ([4]; SK-OV-3 clone expressing CPG2*): 1.013 U/mg; CPG2 enzyme activity ([4]; WiDr clone expressing CPG2*): 0.787 U/mg; binding result [5]: binds |
| B5 |  |  | formed stable dimers | binding result [5]: binds |
| B6 | essentially inactive |  | did not restore dimer stability; also recorded: not improved | Catalytic activity (%) ([1]; listed as COS/CPG2* (QAQ)): Very low |
| B7 | 55% | 90 µM |  | Km ([1]; unit μm [sic], read-out: Km): 90 µM |
| B8 |  |  | formed stable dimers |  |
| B9 |  |  | migrated as a monomer |  |
| B10 | 78% | 125 µM | did not restore dimer stability; also recorded: not improved | catalytic activity compared to CPG2*(Q)3 [1]: ~2.5 fold; increase in Km (decrease in apparent affinity for MTX) compared to CPG2*(Q)3 [1]: ~12 fold |
| B11 |  |  | unstable |  |
| B12 | 58% | 58 µM | improved; also recorded: restored weak dimer stability | catalytic activity compared to CPG2*(Q)3 [1]: almost twice as active; increase in Km (decrease in apparent affinity for MTX) compared to CPG2*(Q)3 [1]: ~6 fold; binding result [5]: binds |

— patent publication US20040014187A1, “Bacterial carboxypeptidase cpg2 variants and their use in gene directed enzyme prodrug therapy” (priority 2000, published 2004)
